Test results published in PMC9890229.

How the values were obtained:
[1] = target: T1, Hfq;Crc (Pseudomonas aeruginosa;Pseudomonas aeruginosa) (UniProt Q9HUM0+Q51380); experiment: cryo-EM; details: EMSA: 20 mM Tris-HCl pH 8.0, 40 mM NaCl, 10 mM KCl, 1 mM MgCl2; 200 nM RNA; 15 min at 37 C; 4% PAA gel in 1x TBE at 4 C, SYBR gold
[2] = target: T1, Hfq;Crc (Pseudomonas aeruginosa;Pseudomonas aeruginosa); experiment: EMSA; details: EMSA: 20 mM Tris-HCl pH 8.0, 40 mM NaCl, 10 mM KCl, 1 mM MgCl2; 200 nM RNA; 15 min at 37 C; 4% PAA gel in 1x TBE at 4 C, SYBR gold

Sequence	binding [1]	binding [2]
GGAACGCAAACGUUUGCGUCUGGAUAAUCUCCUGGAAAAGCCUCAAUACAACGAUAAGAAAAGCUGGAGGAUACACCAUGAAGCGGGUCGCUUCCCGGCGCCUGUUGGCU [rbsB110]	binds	binds
GGGCCUUUUUUCGUCCCGAAAAAAUAACAACAAGAGGUGAUAUCCAUGCGUCACGGCGAUAUUUCCAGCAGCAACGACACCGUCGGAGUGGCGGUGGUCAACUAC [amiE105]	binds	binds
GGCUGAGGAGGCUUUACGACGGGCCCCGGGGCGCAUGCCGACGACGCGGCGGCCCGACAAUAAAAACAAAUCAUGGAGUAAGAGAAUGAUCAGAAUGGCGCUCAAGCCACUGGUAGCG [estA118]	binds	binds
